Source: US20260109775A1 (Eli Lilly, published 2026)

How the values were obtained:
[1] = molecular target: Human CD137 expressed on stable human 293 cells (human, UniProt Q07011 24-255); assay: cell-based or functional assay
[2] = molecular target: T1, Cynomolgus monkey CD137 expressed on stable human 293 cells (cynomolgus monkey); assay: flow cytometry on 293 cells expressing cynomolgus monkey CD137, antibody at 0.5 micrograms/mL, MFI against control IgG
T1 construct: whole, on cells; also called Cyno-CD137
From the text: The ability of the antibodies disclosed herein to bind to cell surface cynomolgus monkey CD137 can be measured using a flow cytometric assay. Cynomolgus monkey CD137 expressing stable cells are generated by transfecting Cyno-CD137 receptor plasmid DNA into human 293 cells (ATCC) using Lipofectamine™ 2000 reagent (Invitrogen™) per manufacturer's protocol. Stable cells are selected using 0.5 micrograms/mL puromycin in Dulbecoo's Modified Eagle's Medium containing 10% fetal bovine serum and 1% GlutaMAX™. For flow cytometry, confluent adherent cells are detached using Gibco® Cell Dissociation Buffer (Life Technologies), blocked in FACS buffer (phosphate buffered saline containing 3% fetal bovine serum) for 1 h at 4° C., and then transferred into a 96-well round-bottom plate at a density of 1×10⁵ cells/well.
After washing in FACS buffer, secondary antibody R-phycoerythrin conjugated goat anti-human IgG, F(ab′)₂ fragment specific antibody (Jackson ImmunoResearch Laboratories) is added at a 1:200 dilution and cells are incubated at 4° C. for 30 minutes. Cells are washed and live/dead cell staining is performed using LIVE/DEAD® Fixable Far Red Dead Cell Stain kit (Life Technologies) per manufacturer's protocol. […] Flow cytometry data is analyzed using FlowJo® Software. Mean fluorescence intensity (MFI) ratio is calculated as the (MFI of Experimental antibody)/(MFI of the control IgG).

Sequence of Human CD137 expressed on stable human 293 cells (Q07011 24-255): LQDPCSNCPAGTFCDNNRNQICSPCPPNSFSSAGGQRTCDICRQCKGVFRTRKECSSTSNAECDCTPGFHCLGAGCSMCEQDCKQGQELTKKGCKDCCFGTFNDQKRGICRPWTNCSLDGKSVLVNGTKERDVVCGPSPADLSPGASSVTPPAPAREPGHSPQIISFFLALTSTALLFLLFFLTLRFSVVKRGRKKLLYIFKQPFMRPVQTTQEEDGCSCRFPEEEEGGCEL

Binder	NF-kappaB luciferase reporter, max activity [1]	MFI ratio [2]
Antibody A2 (antibody, human IgG1, kappa) heavy: not shown light: IRMTQSPPSLSASVGDRVTITCQASQDIGNSLGWYQQKPGKAPKLVIFDASDLETGVPSRFSGSGSGTDFSLTISSLQPEDFATYYCQQGNSFPLTFGQGTRLEIKRTVAAPSVFIFPPSDEQLKSGTASVVCLLNNFYPREAKVQWKVDNALQSGNSQESVTEQDSKDSTYSLSSTLTLSKADYEKHKVYACEVTHQGLSSPVTKSFNRGEC	72.3%	–
Antibody A1 (antibody, human IgG1, kappa) heavy: not shown light: AIRMTQSPPSLSASVGDRVTITCQASQDIGNSLGWYQQKPGKAPKLVIFDASDLETGVPSRFSGSGSGTDFSLTISSLQPEDFATYYCQQGNSFPLTFGQGTRLEIKRTVAAPSVFIFPPSDEQLKSGTASVVCLLNNFYPREAKVQWKVDNALQSGNSQESVTEQDSKDSTYSLSSTLTLSKADYEKHKVYACEVTHQGLSSPVTKSFNRGEC	63.4%	–
BMS20H4.9 (antibody, human IgG4 S228P, kappa, V domains shown, Comparator antibody, previously described in U.S. Pat. No. 7,288,638) VH: QVQLQQWGAGLLKPSETLSLTCAVYGGSFSGYYWSWIRQSPEKGLEWIGEINHGGYVTYNPSLESRVTISVDTSKNQFSLKLSSVTAADTAVYYCARDYGPGNYDWYFDLWGRGTLVTVSS VL: EIVLTQSPATLSLSPGERATLSCRASQSVSSYLAWYQQKPGQAPRLLIYDASNRATGIPARFSGSGSGTDFTLTISSLEPEDFAVYYCQQRSNWPPALTFGGGTKVEIKR	115%	0.94
